B1: LF: Lactoferrin (LF) is an 80 kDa glycoprotein that exists in mucosal secretions from exocrine glands and neutrophil granules (protein, UniProt P02788 20-710, looked up)
Lactotransferrin: GRRRSVQWCAVSQPEATKCFQWQRNMRKVRGPPVSCIKRDSPIQCIQAIAENRADAVTLDGGFIYEAGLAPYKLRPVAAEVYGTERQPRTHYYAVAVVKKGGSFQLNELQGLKSCHTGLRRTAGWNVPIGTLRPFLNWTGPPEPIEAAVARFFSASCVPGADKGQFPNLCRLCAGTGENKCAFSSQEPYFSYSGAFKCLRDGAGDVAFIRESTVFEDLSDEAERDEYELLCPDNTRKPVDKFKDCHLARVPSHAVVARSVNGKEDAIWNLLRQAQEKFGKDKSPKFQLFGSPSGQKDLLFKDSAIGFSRVPPRIDSGLYLGSGYFTAIQNLRKSEEEVAARRARVVWCAVGEQELRKCNQWSGLSEGSVTCSSASTTEDCIALVLKGEADAMSLDGGYVYTAGKCGLVPVLAENYKSQQSSDPDPNCVDRPVEGYLAVAVVRRSDTSLTWNSVKGKKSCHTAVDRTAGWNIPMGLLFNQTGSCKFDEYFSQSCAPGSDPRSNLCALCIGDEQGENKCVPNSNERYYGYTGAFRCLAENAGDVAFVKDVTVLQNTDGNNNEAWAKDLKLADFALLCLDGKRKPVTEARSCHLAMAPNHAVVSRMDKVERLKQVLLHQQAKFGRNGSDCPDKFCLFQSETKNLLFNDNTECLARLHGKTTYEKYLGPQYVAGITNLKKCSTSPLLEACEFLRK
B2: nitrated LF: LF nitrated with sodium peroxynitrite at ONOO-/Tyr molar ratios of 10/1 and 40/1 (protein, UniProt P02788 20-710, looked up)
Lactotransferrin: B1 Lactotransferrin
modifications: tyrosine nitration by peroxynitrite

Experiments:
[1] = ferrous iron (Fe++) binding capacity of LF; conditions: following sodium peroxinitrite-induced nitration of the iron-containing form of the protein
From the text: As noted above, LF binds ferrous iron (Fe++) and controls iron distribution throughout the body and its ability to bind to inflammatory and other cell membranes and impact the activities of these cells through its iron binding activities and other mechanisms. The inventors hypothesized that the antibacterial effect may be linked to the iron binding activity of LF and that this antibacterial effect may be disrupted by nitration.
However, sodium peroxinitrite caused changes that went far beyond the mere nitration of a few tyrosine residues to include destruction of tyrosine and tryptophan which at least in part were converted to unidentified reaction products. Nitration can occur as a consequence of the formation of reactive nitrogen species in the body and as a result of drug or chemical reactions, and/or environmental toxins in polluted air, water, or other routes of intake.

[2] = tested on: E. coli (ATCC 25922); assay: standard broth dilutions susceptibility test, read at 600 nm; type: cell-based
Description: The following methods were used to conduct the experiments described in Examples 1-3, below: The experiments were conducted using the standard broth dilutions susceptibility test (Jorgensen, J. H.; Turnidge, J. D., Susceptibility test methods: dilution and disk diffusion methods. In Manual of Clinical Microbiology, Eleventh Edition, American Society of Microbiology: 2015; pp 1253-73). Briefly, 1 μl of glycerol stock aliquot of E. coli (ATCC 25922) was inculcated into Tryptic Soya agar (TSA) (Sigma Aldrich 22091) plates and incubated at 37° C. for 24 hrs. Subsequently, 3-5 separate colonies were selected and transferred into 4 ml Tryptic Soya broth (TSB) (Sigma Aldrich 22092) and incubated at 37° C. for 24 hrs. After incubation, samples were diluted 4 ml into 50 ml TSB to make E. coli stock. 200 μl samples were then placed into wells of a 96-microwell plate. All samples were prepared in TSB, (Blank) using TSB, ERGO (OXIS International), LF (Sigma Aldrich) and NLF were diluted to 1 mg/ml. The nitration reaction was prepared following the method reported by Selzle et al (Determination of nitration degrees for the birch pollen allergen Bet v 1. Analytical and Bioanalytical Chemistry 2013, 405(27):8945-49). According to this procedure, 400 μl aliquots of 5.0 mg/ml (±5%) LF in aqueous solution were pipetted into glass vials. […] Using the plate reader (Tecan Infinite, M1000 PRO). […]

Molecule	iron-binding capacity of LF [1]	growth of E. coli ([2]; LF 1 mg/ml or 2 mg/ml, ERGO 5 mM or 50 mM, compared to growth of E. coli without additions, FIGS. 1A and 1B)	inhibition of growth of E. coli by previously nitrated LF ([2]; LF nitrated with sodium peroxynitrite, compared to native (non-nitrated) LF)
B1	remained intact	reduced the growth of E. coli	
B2			did not inhibit the growth of E. coli as much as adding native (non-nitrated) LF

From US11957737B2, “Methods of treating microbial infection and inflammation” (Colorado Seminary, Owner and Operator of University of …, priority 2017, dated 2024)
